Like-named read-outs stand apart in the source and are kept apart here.
Columns and labels:
[1] = molecular target: T1, Human PD-1 (ACROBiosystems, Inc., Catalog No. PD1-H5221) (human, UniProt Q15116 25-167); experiment: SPR (Biacore), IgG as ligand, PD-1-his as sample
T1 construct: Bought recombinant protein; also called huPD1-His; PD-1-his; not shown: His tag of the bought protein (huPD1-His)

[2] = molecular target: T2, human PD-1 expressed on the cell surface (CHO-PD1 cells) (human, UniProt Q15116 25-288); experiment: FACS cell binding on CHO cells expressing human PD-1
T2 construct: Also used here as the target for native PD-1 on human PBMC / T cells in the functional (IFN-g) assays; also called CHO cell line overexpressing human PD-1; Cell-Surface Human PD-1 antigen
Description: (§1) A mix of parental CHO cells and CHO-PD1 cells was prepared as follows: Parental CHO cells were washed 2× in PBS then incubated in PBS containing 1 μM CellTrace™ Oregon Green488® (Life Technologies) at 37° C. for 30 minutes. Cells were then washed 2× with RPMI w/10% fetal calf serum (FCS), washed 2× with FACS buffer (PBS w/2% FCS), suspended thoroughly in ice-cold FACS buffer at a final concentration of 2×10⁶ cells/mL and kept on ice. CHO-PD1 cells were similarly washed with FACS buffer and kept on ice at 2×10⁶ cells/mL. Parental CHO cells and CHO-PD1 cells were then mixed to obtain a 1:1 cell suspension and seeded at 100 μL per well on 96 well polypropylene plates. Plates were spun at 1500 rpm for 5 minutes and cell pellets were suspended in 50 μL FACS buffer containing 6-12 point dilutions of anti-PD-1 variants starting from concentrations of −100-200 nM antibody, dispensed using BioMek FX (Beckman Coulter). Cells were then incubated on ice for 1 hr, washed with FACS buffer and incubated for 1 hr on ice with 50 μL FACS buffer containing 2.5 μg/ml R-phycoerythrin-conjugated goat anti-Human IgG (Jackson ImmunoResearch) or AF647-conjugated goat anti-mouse IgG (Life Technologies) dispensed using BioMek FX (Beckman Coulter). Cells were then washed 2× with FACS buffer and fixed for 10 minutes in 200 μL PBS with 2% paraformaldehyde (PFA) prior to fluorescence detection. Samples were acquired using a Becton Dickinson LSRII FACS. Mean Fluorescence Intensity of PD-1 antibody binding was analyzed using FlowJo® software (Tree Star, Inc.).
The affinity of the IgGs for cell-surface expressed human PD-1 were measured according to Example 6, above.

[3] = molecular target: T3, cynomolgus PD-1 expressed on CHO cells (cynomolgus, UniProt B0LAJ3 25-288); experiment: FACS cell binding on CHO cells expressing cynomolgus PD-1
T3 construct: also called Cell-Surface Cynomolgus PD-1 antigen
Description: as §1
The affinity of the IgGs for cell-surface expressed cynomolgus PD-1 were measured according to Example 6, above.

[4] = molecular target: T1, Human PD-1 (ACROBiosystems, Inc., …); experiment: SPR (Biacore), IgG as ligand, PD-1-his as sample; remark: listed apart in the source

T2 sequence (Q15116 25-288 limits assumed): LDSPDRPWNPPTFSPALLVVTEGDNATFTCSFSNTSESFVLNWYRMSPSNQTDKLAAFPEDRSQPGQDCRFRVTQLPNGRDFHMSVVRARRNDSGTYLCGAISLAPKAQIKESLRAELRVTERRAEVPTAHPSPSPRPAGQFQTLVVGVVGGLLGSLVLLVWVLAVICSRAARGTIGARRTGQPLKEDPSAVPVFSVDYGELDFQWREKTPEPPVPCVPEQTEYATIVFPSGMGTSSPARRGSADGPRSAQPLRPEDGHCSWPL
T3 sequence (B0LAJ3 entry or part of it limits assumed, form in doubt): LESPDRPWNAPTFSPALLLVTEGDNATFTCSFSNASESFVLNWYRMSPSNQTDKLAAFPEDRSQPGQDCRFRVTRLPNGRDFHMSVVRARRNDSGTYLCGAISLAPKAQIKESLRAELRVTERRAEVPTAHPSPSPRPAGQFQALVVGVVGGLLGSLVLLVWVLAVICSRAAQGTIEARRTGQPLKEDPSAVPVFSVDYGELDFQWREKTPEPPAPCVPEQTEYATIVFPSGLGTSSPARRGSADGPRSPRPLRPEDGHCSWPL
T1 sequence (Q15116 25-167 limits assumed): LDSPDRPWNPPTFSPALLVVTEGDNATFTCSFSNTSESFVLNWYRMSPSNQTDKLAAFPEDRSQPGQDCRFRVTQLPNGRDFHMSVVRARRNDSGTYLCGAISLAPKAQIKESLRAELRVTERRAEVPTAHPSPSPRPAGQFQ

Binder | Kd [1] [nM] | Kd [2] [nM] | Kd [3] [nM] | Kd [4] [nM] | koff [4] [s⁻¹] | kon [4] [M⁻¹ s⁻¹]
h1E9-HC3 × h1E9-LC4 IgG (antibody, Humanized IgG; heavy chain with C-terminal FlagHis tag) heavy: not shown light: MDIVLTQSPDSLAVSLGERATINCRASESVDNSGISFMSWYQQKPGQPPKLLIYTASNQGSGVPDRFSGSGSGTDFTLTISSLQAEDVAVYYCQQSKEVPWTFGQGTKVEIKRTVAAPSVFIFPPSDEQLKSGTASVVCLLNNFYPREAKVQWKVDNALQSGNSQESVTEQDSKDSTYSLSSTLTLSKADYEKHKVYACEVTHQGLSSPVTKSFNRGEC | 9.4 | 9 | 5 |  |  | 
h1E9-HC2 × h1E9-LC4 IgG (antibody, Humanized IgG; heavy chain with C-terminal FlagHis tag) heavy: not shown light: MDIVLTQSPDSLAVSLGERATINCRASESVDNSGISFMSWYQQKPGQPPKLLIYTASNQGSGVPDRFSGSGSGTDFTLTISSLQAEDVAVYYCQQSKEVPWTFGQGTKVEIKRTVAAPSVFIFPPSDEQLKSGTASVVCLLNNFYPREAKVQWKVDNALQSGNSQESVTEQDSKDSTYSLSSTLTLSKADYEKHKVYACEVTHQGLSSPVTKSFNRGEC | 4.96 | 4 | 6 |  |  | 
h1E9-HC1 × h1E9-LC4 IgG (antibody, Humanized IgG; heavy chain with C-terminal FlagHis tag) heavy: not shown light: MDIVLTQSPDSLAVSLGERATINCRASESVDNSGISFMSWYQQKPGQPPKLLIYTASNQGSGVPDRFSGSGSGTDFTLTISSLQAEDVAVYYCQQSKEVPWTFGQGTKVEIKRTVAAPSVFIFPPSDEQLKSGTASVVCLLNNFYPREAKVQWKVDNALQSGNSQESVTEQDSKDSTYSLSSTLTLSKADYEKHKVYACEVTHQGLSSPVTKSFNRGEC | 6.33 | 8 | 11 |  |  | 
h1E9-5-IgG-HC-FLAG-HIS × h1E9-LC4 IgG (antibody, also called h1E9-5 HC × h1E9-LC4) heavy: not shown light: MDIVLTQSPDSLAVSLGERATINCRASESVDNSGISFMSWYQQKPGQPPKLLIYTASNQGSGVPDRFSGSGSGTDFTLTISSLQAEDVAVYYCQQSKEVPWTFGQGTKVEIKRTVAAPSVFIFPPSDEQLKSGTASVVCLLNNFYPREAKVQWKVDNALQSGNSQESVTEQDSKDSTYSLSSTLTLSKADYEKHKVYACEVTHQGLSSPVTKSFNRGEC | 7.31 | 14 | 12 |  |  | 
h1E9-4 IgG (antibody, Human IgG1; heavy chain with C-terminal FlagHis tag; made by cell-free expression; also called h1E9-4 human IgG1) heavy: not shown light: MDIQLTQSPSFLSASVGDRVTITCRASESVDNSGISFMSWYQQKPGKAPKLLIYTASNQGSGVPSRFSGSGSGTEFTLTISSLQPEDFATYYCQQSKEVPWTFGQGTKVEIKRTVAAPSVFIFPPSDEQLKSGTASVVCLLNNFYPREAKVQWKVDNALQSGNSQESVTEQDSKDSTYSLSSTLTLSKADYEKHKVYACEVTHQGLSSPVTKSFNRGEC |  |  |  | 12.4 | 0.000442 | 35600
h1E9-HC2 × h1E9-LC1 IgG (antibody, Humanized IgG; heavy chain with C-terminal FlagHis tag) heavy: not shown light: MDIQLTQSPSSLSASVGDRVTITCRASESVDNSGISFMSWYQQKPGKAPKLLIYTASNQGSGVPSRFSGSGSGTDFTFTISSLQPEDIATYYCQQSKEVPWTFGQGTKVEIKRTVAAPSVFIFPPSDEQLKSGTASVVCLLNNFYPREAKVQWKVDNALQSGNSQESVTEQDSKDSTYSLSSTLTLSKADYEKHKVYACEVTHQGLSSPVTKSFNRGEC | 3.11 | 7 | 6 |  |  | 
h1E9-HC3 × h1E9-LC2 IgG (antibody, Humanized IgG; heavy chain with C-terminal FlagHis tag) heavy: not shown light: MDIVLTQSPLSLPVTPGEPASISCRASESVDNSGISFMSWYLQKPGQSPQLLIYTASNQGSGVPDRFSGSGSGTDFTLKISRVEAEDVGVYYCQQSKEVPWTFGQGTKVEIKRTVAAPSVFIFPPSDEQLKSGTASVVCLLNNFYPREAKVQWKVDNALQSGNSQESVTEQDSKDSTYSLSSTLTLSKADYEKHKVYACEVTHQGLSSPVTKSFNRGEC | 3.19 | 19 | 11 |  |  | 
h1E9-HC2 × h1E9-LC2 IgG (antibody, Humanized IgG; heavy chain with C-terminal FlagHis tag) heavy: not shown light: MDIVLTQSPLSLPVTPGEPASISCRASESVDNSGISFMSWYLQKPGQSPQLLIYTASNQGSGVPDRFSGSGSGTDFTLKISRVEAEDVGVYYCQQSKEVPWTFGQGTKVEIKRTVAAPSVFIFPPSDEQLKSGTASVVCLLNNFYPREAKVQWKVDNALQSGNSQESVTEQDSKDSTYSLSSTLTLSKADYEKHKVYACEVTHQGLSSPVTKSFNRGEC | 12.3 | 11 | 9 |  |  | 
h1E9-HC1 × h1E9-LC2 IgG (antibody, Humanized IgG; heavy chain with C-terminal FlagHis tag) heavy: not shown light: MDIVLTQSPLSLPVTPGEPASISCRASESVDNSGISFMSWYLQKPGQSPQLLIYTASNQGSGVPDRFSGSGSGTDFTLKISRVEAEDVGVYYCQQSKEVPWTFGQGTKVEIKRTVAAPSVFIFPPSDEQLKSGTASVVCLLNNFYPREAKVQWKVDNALQSGNSQESVTEQDSKDSTYSLSSTLTLSKADYEKHKVYACEVTHQGLSSPVTKSFNRGEC | 19 | 12 | 19 |  |  | 
h1E9-5-IgG-HC-FLAG-HIS × h1E9-LC2 IgG (antibody, also called h1E9-5 HC × h1E9-LC2) heavy: not shown light: MDIVLTQSPLSLPVTPGEPASISCRASESVDNSGISFMSWYLQKPGQSPQLLIYTASNQGSGVPDRFSGSGSGTDFTLKISRVEAEDVGVYYCQQSKEVPWTFGQGTKVEIKRTVAAPSVFIFPPSDEQLKSGTASVVCLLNNFYPREAKVQWKVDNALQSGNSQESVTEQDSKDSTYSLSSTLTLSKADYEKHKVYACEVTHQGLSSPVTKSFNRGEC | 16.2 | 16 | 11 |  |  | 
h1E9-HC3 × h1E9-LC3 IgG (antibody, Humanized IgG; heavy chain with C-terminal FlagHis tag) heavy: not shown light: MEIVLTQSPGTLSLSPGERATLSCRASESVDNSGISFMSWYQQKPGQAPRLLIYTASNQGSGIPDRFSGSGSGTDFTLTISRLEPEDFAVYYCQQSKEVPWTFGQGTKVEIKRTVAAPSVFIFPPSDEQLKSGTASVVCLLNNFYPREAKVQWKVDNALQSGNSQESVTEQDSKDSTYSLSSTLTLSKADYEKHKVYACEVTHQGLSSPVTKSFNRGEC | 16.9 | 12 | 8 |  |  | 
h1E9-5-IgG-HC-FLAG-HIS × h1E9-LC3 IgG (antibody, also called h1E9-5 HC × h1E9-LC3) heavy: not shown light: MEIVLTQSPGTLSLSPGERATLSCRASESVDNSGISFMSWYQQKPGQAPRLLIYTASNQGSGIPDRFSGSGSGTDFTLTISRLEPEDFAVYYCQQSKEVPWTFGQGTKVEIKRTVAAPSVFIFPPSDEQLKSGTASVVCLLNNFYPREAKVQWKVDNALQSGNSQESVTEQDSKDSTYSLSSTLTLSKADYEKHKVYACEVTHQGLSSPVTKSFNRGEC | 16.3 | 11 | 9 |  |  | 
h1E9-HC2 × h1E9-LC3 IgG (antibody, Humanized IgG; heavy chain with C-terminal FlagHis tag) heavy: not shown light: MEIVLTQSPGTLSLSPGERATLSCRASESVDNSGISFMSWYQQKPGQAPRLLIYTASNQGSGIPDRFSGSGSGTDFTLTISRLEPEDFAVYYCQQSKEVPWTFGQGTKVEIKRTVAAPSVFIFPPSDEQLKSGTASVVCLLNNFYPREAKVQWKVDNALQSGNSQESVTEQDSKDSTYSLSSTLTLSKADYEKHKVYACEVTHQGLSSPVTKSFNRGEC | 10.9 | 9 | 9 |  |  | 
h1E9-HC1 × h1E9-LC3 IgG (antibody, Humanized IgG; heavy chain with C-terminal FlagHis tag) heavy: not shown light: MEIVLTQSPGTLSLSPGERATLSCRASESVDNSGISFMSWYQQKPGQAPRLLIYTASNQGSGIPDRFSGSGSGTDFTLTISRLEPEDFAVYYCQQSKEVPWTFGQGTKVEIKRTVAAPSVFIFPPSDEQLKSGTASVVCLLNNFYPREAKVQWKVDNALQSGNSQESVTEQDSKDSTYSLSSTLTLSKADYEKHKVYACEVTHQGLSSPVTKSFNRGEC | 6.38 | 12 | 15 |  |  | 
h1E9-5 IgG (antibody, Human IgG1; heavy chain with C-terminal FlagHis tag; made by cell-free expression; also called h1E9-5 human IgG1) heavy: not shown light: MEIVLTQSPATLSLSPGERATLSCRASESVDNSGISFMSWYQQKPGQAPRLLIYTASNQGSGIPARFSGSGSGTDFTLTISSLEPEDFAVYYCQQSKEVPWTFGQGTKVEIKRTVAAPSVFIFPPSDEQLKSGTASVVCLLNNFYPREAKVQWKVDNALQSGNSQESVTEQDSKDSTYSLSSTLTLSKADYEKHKVYACEVTHQGLSSPVTKSFNRGEC |  |  |  | 19.4 | 0.000471 | 24300

— patent US20210107981A1 (SUTRO BIOPHARMA, published 2021)
